# From US20110195027A1 (KOREA RESEARCH INSTITUTE OF BIOSCIENCE AND BIOTECHNOLOGY, published 2011)
# T1: CD9-ECL2 mutant M1 (human, with rat residues, UniProt P21926 112-195)
# T1 construct: also called mutation 1; not shown: Myc and 8x His tag of the pYK His only vector
# T1 chain: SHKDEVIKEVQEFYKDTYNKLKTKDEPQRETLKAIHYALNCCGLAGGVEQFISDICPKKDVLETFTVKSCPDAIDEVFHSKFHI
# T2: CD9-ECL2 mutant M4 (human, with rat residues, UniProt P21926 112-195)
# T2 construct: also called mutation 4; not shown: Myc and 8x His tag of the pYK His only vector
# T2 chain: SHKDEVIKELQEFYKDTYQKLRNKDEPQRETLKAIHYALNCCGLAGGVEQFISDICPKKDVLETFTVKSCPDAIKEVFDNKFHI
# T3: p-Myc-His CD9-ECL2 wild type (human)
# T3 chain: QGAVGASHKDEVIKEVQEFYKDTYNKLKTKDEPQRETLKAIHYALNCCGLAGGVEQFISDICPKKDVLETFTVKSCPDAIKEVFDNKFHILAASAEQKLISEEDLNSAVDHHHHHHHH
# Legend:
# [1] = target: T4, CD9-ECL2(CD9 extracellular domain 2)-Fc antigen (human); assay: phage ELISA; CD9 OD/a-myc OD
# T4 construct: also called CD9-ECL2-Fc; CD9-EC2-Fc
# Method: (§1) A 96-well immuno-plate was coated with CD9-EC2-Fc antigen (0.1 μg/well) at 4° C. for 16 hours, followed by blocking with skim milk dissolved in PBS (4%). Each well of the 96-well immuno-plate was washed with 0.2 ml of PBS-tween20 (0.05%). 100 ul of the 3rd-4th panning monoclonal scFV-phage was added to each well, followed by reaction at room temperature for 2 hours. Each well was washed four times with 0.2 ml of PBS-tween20 (0.05%). The secondary antibody anti-M13-HRP was diluted at 1:2000, followed by reaction at room temperature for 1 hour. The plate was washed with 0.2 ml of PBS-tween20 (0.05%), followed by color development. OD₄₉₀ was measured.
# Target sequence in this assay (chain, as listed by the source limits assumed): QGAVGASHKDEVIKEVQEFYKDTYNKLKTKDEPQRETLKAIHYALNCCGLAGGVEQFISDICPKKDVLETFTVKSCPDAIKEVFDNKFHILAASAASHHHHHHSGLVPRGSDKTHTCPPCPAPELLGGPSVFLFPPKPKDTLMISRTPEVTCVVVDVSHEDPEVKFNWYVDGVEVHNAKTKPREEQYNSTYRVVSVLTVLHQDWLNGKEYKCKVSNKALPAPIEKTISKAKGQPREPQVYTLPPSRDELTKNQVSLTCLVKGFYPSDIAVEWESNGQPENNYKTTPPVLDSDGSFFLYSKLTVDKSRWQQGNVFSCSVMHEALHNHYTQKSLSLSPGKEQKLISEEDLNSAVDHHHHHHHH
# [2] = target: T4, CD9-ECL2(CD9 extracellular domain 2)-Fc …; assay: phage ELISA
# Method: as §1
# Target sequence in this assay (chain, as listed by the source limits assumed): as above
# Fc = target: T5, Fc; assay: phage ELISA
# T5 construct: Control antigen of the phage ELISA
# Method: as §1
# [3] = target: T4, CD9-ECL2(CD9 extracellular domain 2)-Fc …; assay: phage ELISA; CD9 OD/a-myc OD (repeats Table 3)
# Method: as §1
# Target sequence in this assay (chain, as listed by the source limits assumed): as above
# CD9-ECL2 mutant M1 = target: T1, CD9-ECL2 mutant M1; assay: ELISA: antibody coated, supernatant, anti-His-HRP
# Method: (§2) Each supernatant was loaded by 24 ul at 100 V for 2 hours, and then transferred to NC membrane (Millipore Cat. No. HATF00010) at 85V for 2 hours. The membrane finished with transfer was blocked by using blocking buffer (4% skim milk in TEST) at room temperature for 1 hour. A-His-HRP (Sigma, Cat. No. A7058) was diluted with blocking buffer (4% skim milk in TBST) at 1:4000 and binding was induced at room temperature for 1 hour. The membrane was washed with TBST 5 times every 10 minutes, followed by development (Intron, Cat. No. 12145). Expression of each mutant was confirmed by Western blotting (FIG. 15). Based on that, epitopes of ALB6 and 10E4 were confirmed by ELISA. A 96-well immuno-plate (NUNC) was coated with coating buffer comprising ALB6 and 10E4 (100 ng/100 ul/well each) at 4° C. for 16 hours, followed by blocking with 4% PBST (skim milk dissolved in 1× PBS) for 2 hours. Each well of the 96-well immuno-plate was washed three times with 0.2 ml of PBST (PBS-tween20 (0.05%)). From the supernatants obtained on day 5 confirmed to contain a large number of mutants confirmed by Western blotting, wild type, M1 and M4 supernatants were selected. 100 ul of the selected supernatant was added to each well of the plate, followed by reaction for 2 hours. The plate was washed again. The secondary antibody anti-His-HRP (Sigma A7058) was diluted at 1:1000, followed by reaction at room temperature for 30 minutes. Washing was performed three times by the same manner as described above. OPD tablet (Sigma 8787-TAB) was added to PC buffer [C₆H₈O₇H₂O (Sigma, C0706) 5.1 g, Na₂HPO₄ (Sigma, 57907 7.3 g)] to make substrate solution, which was added to each well by 100 ul/well, followed by color development for 10 minutes. Color development was terminated by adding 2 M H₂SO₄ solution. Then, OD₄₉₀ was measured by using ELISA reader (Molecular Device).
# CD9-ECL2 mutant M4 = target: T2, CD9-ECL2 mutant M4; assay: ELISA: antibody coated, supernatant, anti-His-HRP
# Method: as §2
# [4] = target: T3, p-Myc-His CD9-ECL2 wild type; assay: ELISA: antibody coated, supernatant, anti-His-HRP
# Method: as §2
# [5] = target: T4, CD9-ECL2(CD9 extracellular domain 2)-Fc …; assay: phage ELISA; CD9 OD/a-myc OD; remark: listed apart in the source
# [6] = target: T4, CD9-ECL2(CD9 extracellular domain 2)-Fc …; assay: phage ELISA; CD9 OD/a-myc OD (repeats Table 2)
binder,measurement,setting,value
"CD9 8A scFv monoclonal phage antibody (scFv, V domains shown, also called 8A3) VH: QVQLVQSGAEVKKPGASVKLSCKASGYTFSSYWMHWVRQAPGQRLEWMGEINPGNGHTNYNEKFKSRVTITVGKSASTAYMELSSLRSEDTAVYYCAREGVSAAGGLDHWGQGTQITVSS VL: DIQMTQSPSSLSVSTGARVTITCRASQGISNYLAWYQQKPGKAPKLLIYAASTLQSGVPSRFSGSGSGTDFTLTISSLQPEDFATYYCQQLNSYPLTFGGGTKVEIK",Ratio,[1],0.73
same,OD490,[2],1.61
same,OD490,Fc,0.088
same,Ratio,[3],0.73
"CD9 12F scFv monoclonal phage antibody (scFv, V domains shown, also called 12F3) VH: QVQLVQSGAEVKKPGASVKLSCKASGYTFSSYWMHWVRQAPGQRLEWMGEINPGNGHTNYNEKFKSRVTITVDKSASTAYMELSSLRSEDTAVYYCARELEEGAFDIWGQGTMVTVSS VL: DIQMTQSPSSLPASVGDRVTITCRASQGISSYLAWYQQKPGKAPKLLIYAASTLQSGVPSRFSGSGSGTDFTLTISSLQPEDFATYYCQQYDSVPLTFGGGTKVEIK",Ratio,[1],0.669
same,OD490,[2],1.16
same,OD490,Fc,0.124
same,Ratio,[3],0.668
"CD9 3F3 scFv monoclonal phage antibody (scFv, V domains shown, not shown: small tags and cut ends) VH: QMQLVQSGAEVKKPGASVKLSCKASGYTFSSYWMHWVRQAPGQRLEWMGEINPGNGHTNYNEKFKSRVTITVDKSASTAYMELSSLRSEDTAVYYCGQDNSPPRIWGQGTLITVSS VL: QSALTQPASVSGSPGQSITISCTGTSSDVGGYNHVSWYQQHPGKAPKLLIYDVSNRPSGVSGRFSGSKSGNTASLTISGLQAEDEANYYCGSYTSSSTFEVFGTGTKVTVL",Ratio,[1],0.918
same,OD490,[2],0.961
same,OD490,Fc,0.0394
same,Ratio,[3],0.918
"CD9 11G scFv monoclonal phage antibody (scFv, V domains shown, also called 11G3) VH: QVQLVQSGAEVKKPGASVKLSCKASGYTSSSYWMHWVRQAPGQRLEWMGEINPGNGHTNYNEKFKSRVTITVDKSASTAYMELSSLRSEDTAVYYCGQDNSPPRIWGQGTLVTVSS VL: DIQMTQSPSTLSASVGDRVTITCRASQTIGNLAWFQQKPGKAPKLLIYKASSLESGVPSRFSGSGSGTEFTLTISSLQPDDFATYYCQQYSDYWTFGQGTKVEIK",Ratio,[1],1.23
same,OD490,[2],2.24
same,OD490,Fc,0.0441
same,Ratio,[3],1.23
"10E4 whole IgG (antibody, V domains shown, Whole IgG made from the 10E4 phage clone in pNATAB H and pNATAB L vectors; the heavy chain PCR primer starts at QVQLVQS; also called 10E4 human antibody; anti-CD9(10E4) IgG) VH: MAQVQLVQSGGGLVQPGRSLRLSCAASGFTFDDFAMHWVRQAPGKGLEWVAGISWNSGDIRYADSVRGRFTISRDNAKNSLFLQMNSLRAEDTAVYYCARSPVGTTYFDYWGQGALITVSS VL: DIQMTQSPSSLSASVGDRVTITCRASQGISSYLAWYQQKPGKAPKLLIYAASTLQSEVPSRFSGSGSGTDFTLTISSLQPEDFATYYCQQLNIFPLTFGGTKVDIKR",OD490,CD9-ECL2 mutant M1,0.084
same,OD490,CD9-ECL2 mutant M4,0.398
same,OD490,[4],0.375
"CD9 5G4 scFv monoclonal phage antibody (scFv, V domains shown) VH: QVQLVSSGAEVKKPGASVKLSCKASGYTFSSYWMHWVRQAPGQRLEWMGEINPGNGHTNYNEKFKSRVTITVDKSASTAYMELSSLRSEDTAVYYCAREDDIEDAFDFWGQGTMVTVSS VL: DIQMTQSPSSVSASVGDRVTITCRASQSISSWLAWYQQKPGKAPKLLIYGASNLQSGVPSRFSGSGSGTDFTLTISSLHPEDFATYFCHKTDSFPLTFGGGTKVEIK",Ratio,[5],1.04
same,Ratio,[6],1.04
